The values that follow come from PMC8699698, “Oligomeric States and Hydrodynamic Properties of Lysyl Oxidase-Like 2” (Biomolecules, 2021).

The target in data set [1] is T1, full-length lysyl oxidase-like 2 (fl-LOXL2), wild type, Q9Y4K0.
T1 chain: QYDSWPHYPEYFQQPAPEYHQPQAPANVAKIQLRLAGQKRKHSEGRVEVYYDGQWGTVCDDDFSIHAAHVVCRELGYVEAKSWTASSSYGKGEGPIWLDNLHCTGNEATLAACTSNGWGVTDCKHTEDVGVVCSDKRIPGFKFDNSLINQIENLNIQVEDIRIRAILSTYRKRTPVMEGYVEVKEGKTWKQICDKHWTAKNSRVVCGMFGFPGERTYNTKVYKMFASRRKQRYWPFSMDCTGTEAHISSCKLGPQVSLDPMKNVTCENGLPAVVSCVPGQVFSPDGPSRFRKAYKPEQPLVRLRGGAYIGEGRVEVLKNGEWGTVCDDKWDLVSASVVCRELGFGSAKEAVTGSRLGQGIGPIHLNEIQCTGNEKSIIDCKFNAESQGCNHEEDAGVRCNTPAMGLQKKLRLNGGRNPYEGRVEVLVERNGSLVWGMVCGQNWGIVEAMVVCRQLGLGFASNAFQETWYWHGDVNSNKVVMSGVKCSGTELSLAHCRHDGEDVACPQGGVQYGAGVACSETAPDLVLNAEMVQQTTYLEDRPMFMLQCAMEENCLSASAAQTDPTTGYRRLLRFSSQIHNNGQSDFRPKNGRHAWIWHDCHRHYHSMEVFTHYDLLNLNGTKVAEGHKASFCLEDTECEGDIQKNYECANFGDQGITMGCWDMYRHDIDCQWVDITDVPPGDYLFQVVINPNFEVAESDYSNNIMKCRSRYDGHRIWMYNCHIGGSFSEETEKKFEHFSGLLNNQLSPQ
Put plainly: native gel or EMSA; Native PAGE, NativePAGE 4 to 16% Bis-Tris gels, 125 V for 2 h; self-association of purified LOXL2 forms. The conditions noted are these: remark: other sources report otherwise. (In general: A gel shift assay detects complexes by their altered migration in electrophoresis.)

Data set [2] concerns the target T1, full-length lysyl oxidase-like 2 …. The data set is described as follows: AUC; Sedimentation velocity, 20 °C, 40,000 RPM, 50 mM HEPES pH 8.0, fl-LOXL2 at 0.88, 0.30 and 0.088 mg/mL, c(s) model of SEDFIT; self-association. To be noted: remark: other sources report otherwise.
Data set [3] shares this target. Put plainly: SEC-MALS; Superdex 200 10/300, 50 mM Tris pH 8.0, 150 mM NaCl, 0.01% sodium azide; fl-LOXL2 at concentrations from 0.08 to 1.6 uM; self-association. The conditions noted are these: remark: other sources report otherwise. (Size exclusion chromatography separates by hydrodynamic size, large species first.)
Data set [4] deals with the molecule itself. The data set is described as follows: native gel or EMSA; Native PAGE, NativePAGE 4 to 16% Bis-Tris gels, 125 V for 2 h; self-association of purified LOXL2 forms.

Values joined by “and” are separate entries in the source; they are usually repeats but may differ in a detail not shown here. Equal values may be shown once.

B1: full-length lysyl oxidase-like 2 (fl-LOXL2), wild type, Q9Y4K0 26-774 (enzyme)
chain: QYDSWPHYPEYFQQPAPEYHQPQAPANVAKIQLRLAGQKRKHSEGRVEVYYDGQWGTVCDDDFSIHAAHVVCRELGYVEAKSWTASSSYGKGEGPIWLDNLHCTGNEATLAACTSNGWGVTDCKHTEDVGVVCSDKRIPGFKFDNSLINQIENLNIQVEDIRIRAILSTYRKRTPVMEGYVEVKEGKTWKQICDKHWTAKNSRVVCGMFGFPGERTYNTKVYKMFASRRKQRYWPFSMDCTGTEAHISSCKLGPQVSLDPMKNVTCENGLPAVVSCVPGQVFSPDGPSRFRKAYKPEQPLVRLRGGAYIGEGRVEVLKNGEWGTVCDDKWDLVSASVVCRELGFGSAKEAVTGSRLGQGIGPIHLNEIQCTGNEKSIIDCKFNAESQGCNHEEDAGVRCNTPAMGLQKKLRLNGGRNPYEGRVEVLVERNGSLVWGMVCGQNWGIVEAMVVCRQLGLGFASNAFQETWYWHGDVNSNKVVMSGVKCSGTELSLAHCRHDGEDVACPQGGVQYGAGVACSETAPDLVLNAEMVQQTTYLEDRPMFMLQCAMEENCLSASAAQTDPTTGYRRLLRFSSQIHNNGQSDFRPKNGRHAWIWHDCHRHYHSMEVFTHYDLLNLNGTKVAEGHKASFCLEDTECEGDIQKNYECANFGDQGITMGCWDMYRHDIDCQWVDITDVPPGDYLFQVVINPNFEVAESDYSNNIMKCRSRYDGHRIWMYNCHIGGSFSEETEKKFEHFSGLLNNQLSPQ
modifications: here or on the partner: lysine tyrosylquinone (LTQ) cofactor (precursor residues Lys653 and Tyr689), Cu2+ bound; N-glycans (N-glycosylation sites Asn288, Asn455, Asn644); lysine tyrosylquinone (LTQ) cofactor (precursor residues Lys653 and Tyr689), Cu2+ bound; N-glycans (N-glycosylation sites Asn288, Asn455, Asn644)
As for B1, the stoichiometry N in data set [1] was 2 and 4. In addition, in data set [2], the percent of dimer was 11.6%; the percent of monomer came out at 83.6%; the percent of tetramer and pentamer together was 4.7%; the stoichiometry N was 4 and 5 and 2. Moreover, the stoichiometry N in data set [3] is 2 and 4.

B2: R314A/R316A/K317Q-LOXL2 (AAQ-LOXL2, a PACE4 cleavage site null mutant), full length (enzyme, UniProt Q9Y4K0 26-774, looked up)
chain: QYDSWPHYPEYFQQPAPEYHQPQAPANVAKIQLRLAGQKRKHSEGRVEVYYDGQWGTVCDDDFSIHAAHVVCRELGYVEAKSWTASSSYGKGEGPIWLDNLHCTGNEATLAACTSNGWGVTDCKHTEDVGVVCSDKRIPGFKFDNSLINQIENLNIQVEDIRIRAILSTYRKRTPVMEGYVEVKEGKTWKQICDKHWTAKNSRVVCGMFGFPGERTYNTKVYKMFASRRKQRYWPFSMDCTGTEAHISSCKLGPQVSLDPMKNVTCENGLPAVVSCVPGQVFSPDGPSAFAQAYKPEQPLVRLRGGAYIGEGRVEVLKNGEWGTVCDDKWDLVSASVVCRELGFGSAKEAVTGSRLGQGIGPIHLNEIQCTGNEKSIIDCKFNAESQGCNHEEDAGVRCNTPAMGLQKKLRLNGGRNPYEGRVEVLVERNGSLVWGMVCGQNWGIVEAMVVCRQLGLGFASNAFQETWYWHGDVNSNKVVMSGVKCSGTELSLAHCRHDGEDVACPQGGVQYGAGVACSETAPDLVLNAEMVQQTTYLEDRPMFMLQCAMEENCLSASAAQTDPTTGYRRLLRFSSQIHNNGQSDFRPKNGRHAWIWHDCHRHYHSMEVFTHYDLLNLNGTKVAEGHKASFCLEDTECEGDIQKNYECANFGDQGITMGCWDMYRHDIDCQWVDITDVPPGDYLFQVVINPNFEVAESDYSNNIMKCRSRYDGHRIWMYNCHIGGSFSEETEKKFEHFSGLLNNQLSPQ
notes: Lysyl oxidase-like 2 (LOXL2), full-length form with the PACE4 cleavage site mutated (text: R314A/R316A/K317Q); Secreted protein; also called R315A/R316A/K317Q mutant form of LOXL2
For the molecule B2, the “stoichiometry N” value in data set [4] was 2 and 4.

B3: K317R-LOXL2, full-length form (furin-cleavage site engineered) (enzyme, UniProt Q9Y4K0 26-774, looked up)
chain: QYDSWPHYPEYFQQPAPEYHQPQAPANVAKIQLRLAGQKRKHSEGRVEVYYDGQWGTVCDDDFSIHAAHVVCRELGYVEAKSWTASSSYGKGEGPIWLDNLHCTGNEATLAACTSNGWGVTDCKHTEDVGVVCSDKRIPGFKFDNSLINQIENLNIQVEDIRIRAILSTYRKRTPVMEGYVEVKEGKTWKQICDKHWTAKNSRVVCGMFGFPGERTYNTKVYKMFASRRKQRYWPFSMDCTGTEAHISSCKLGPQVSLDPMKNVTCENGLPAVVSCVPGQVFSPDGPSRFRRAYKPEQPLVRLRGGAYIGEGRVEVLKNGEWGTVCDDKWDLVSASVVCRELGFGSAKEAVTGSRLGQGIGPIHLNEIQCTGNEKSIIDCKFNAESQGCNHEEDAGVRCNTPAMGLQKKLRLNGGRNPYEGRVEVLVERNGSLVWGMVCGQNWGIVEAMVVCRQLGLGFASNAFQETWYWHGDVNSNKVVMSGVKCSGTELSLAHCRHDGEDVACPQGGVQYGAGVACSETAPDLVLNAEMVQQTTYLEDRPMFMLQCAMEENCLSASAAQTDPTTGYRRLLRFSSQIHNNGQSDFRPKNGRHAWIWHDCHRHYHSMEVFTHYDLLNLNGTKVAEGHKASFCLEDTECEGDIQKNYECANFGDQGITMGCWDMYRHDIDCQWVDITDVPPGDYLFQVVINPNFEVAESDYSNNIMKCRSRYDGHRIWMYNCHIGGSFSEETEKKFEHFSGLLNNQLSPQ
notes: Lysyl oxidase-like 2 (LOXL2), K317R mutant, the full-length species in the K317R-LOXL2 lane of the native gel; the bands at ~175 and ~340 kDa are ascribed to its full-length form; also called K317R mutant
As to B3, the “stoichiometry N” value in data set [4] is 2 and 4.

In general, stoichiometry N refers to a count of units in the complex or per binding partner.
